Measured values taken from article PMC4003243 (The Journal of Cell Biology, 2014).
Where no end group is shown, it is not given here.

Target: His-tagged talin head (1–406 aa) (human, UniProt Q9Y490 1-406)
Experiment: BLI

Sequence of His-tagged talin head (1–406 aa) (Q9Y490 1-406): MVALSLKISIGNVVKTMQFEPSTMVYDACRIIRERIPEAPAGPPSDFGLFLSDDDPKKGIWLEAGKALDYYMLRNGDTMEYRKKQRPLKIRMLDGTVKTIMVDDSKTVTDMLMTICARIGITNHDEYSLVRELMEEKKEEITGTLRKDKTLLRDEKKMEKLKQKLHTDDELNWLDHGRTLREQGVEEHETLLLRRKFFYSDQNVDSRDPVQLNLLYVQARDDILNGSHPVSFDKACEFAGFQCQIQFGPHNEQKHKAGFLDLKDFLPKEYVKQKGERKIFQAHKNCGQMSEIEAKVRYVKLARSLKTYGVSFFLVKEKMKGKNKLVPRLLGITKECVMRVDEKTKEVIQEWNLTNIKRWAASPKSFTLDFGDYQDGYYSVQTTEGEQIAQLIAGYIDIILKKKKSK

fold higher affinity over wild-type β3-tail [fold] | binding result | Binder
~20 |  | KLLITIHDRKEFAKFEEERARAKWVENPLYKEATSTFTNITYRGT (domain or fragment, mouse, UniProt O54890 741-787, looked up, also: GST fusion) [GST–β3-tail, β3-VE chimera]
 | binds | KLLITIHDRKEFAKFEEERARAKWDTANNPLYKEATSTFTNITYRGT (domain or fragment, mouse, UniProt O54890 741-787, looked up, also: GST fusion) [GST–β3-tail (716–762 aa), wild type]
